Measured values published in article PMC5563082.

Columns and labels:
[1] = target: human NL1(–A–B)_(ECTO) (Gln46-Asp635), soluble protein for ITC and as SPR analyte (human); assay: ITC; competition: β-NRX1_(LNS6)(–4) titrated into NL1_(ECTO) with an equimolar amount of MDGA1_(ECTO) in the cell; HBS-C, 295 K; apparent KD
[2] = target: human NL1(–A–B)_(ECTO) (Gln46-Asp635), soluble protein for ITC and as SPR analyte (human); assay: ITC; β-NRX1_(LNS6)(–4) in the syringe titrated into NL1_(ECTO) alone in the cell; HBS-C (10 mM HEPES pH 7.50, 150 mM NaCl, 3 mM CaCl2), 295 K; one binding site model
[3] = target: human NL1(–A+B)_(ECTO), immobilised for SPR (human); assay: SPR; biotinylated NL_(ECTO)-Avitag variants captured from dialysed conditioned medium on streptavidin CM5 chip (500 RU; 550 RU for the ΔSite series; 1000 RU for NL3 and NL3 Arg451Cys in the R451C series); β-NRX1_(LNS6)(±4), MDGA1_(ECTO), MDGA2_(ECTO) injected, 15 concentrations, two-fold series from 50 μM; TBS-CTB (10 mM Tris pH 7.4, 150 mM NaCl, 3 mM CaCl2, 0.005% Tween-20, 1.0 g/L BSA); equilibrium analysis, 1:1 Langmuir model
[4] = target: human NL1(–A–B)_(ECTO), biotinylated and immobilised for SPR (human); assay: as above
[5] = target: human NL3(–A)_(ECTO) (Gln38-Asp636), immobilised for SPR (human) (UniProt Q9NZ94); assay: as above
[6] = target: human NL1 cholinesterase domain lacking splice inserts (hNL1(–A–B)_(ECTO); Gln46-Asp635), crystallisation sample (human); assay: crystal structure; Endo F1-treated hNL1(–A–B)_(ECTO)–cMDGA1_(ECTO) complex, mixed 1:1.25, 0.1M Na.HEPES pH 7.0, 7.5% PEG8000; 3.30 Å

Sequence of human NL3(–A)_(ECTO) (Gln38-Asp636), immobilised for SPR (human) (Q9NZ94 other isoform, or with tags, fused parts or gaps): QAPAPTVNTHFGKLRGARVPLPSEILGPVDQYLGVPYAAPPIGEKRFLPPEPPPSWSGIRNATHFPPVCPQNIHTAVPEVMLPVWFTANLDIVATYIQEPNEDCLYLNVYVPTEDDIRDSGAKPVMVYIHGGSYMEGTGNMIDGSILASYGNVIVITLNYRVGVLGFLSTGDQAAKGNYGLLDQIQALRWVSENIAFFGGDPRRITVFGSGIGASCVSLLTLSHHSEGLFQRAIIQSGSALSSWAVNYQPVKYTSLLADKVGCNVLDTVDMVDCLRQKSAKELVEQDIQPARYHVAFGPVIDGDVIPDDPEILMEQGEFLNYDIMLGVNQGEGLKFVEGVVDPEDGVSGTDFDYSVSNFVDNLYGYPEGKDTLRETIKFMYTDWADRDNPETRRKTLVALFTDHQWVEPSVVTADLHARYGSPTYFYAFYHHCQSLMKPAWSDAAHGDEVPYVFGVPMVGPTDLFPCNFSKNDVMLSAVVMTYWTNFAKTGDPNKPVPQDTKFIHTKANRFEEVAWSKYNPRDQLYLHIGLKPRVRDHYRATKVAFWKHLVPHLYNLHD

Substance	K (D,app) with an equimolar amount of MDGA1 (ECTO) [1] [µM]	Kd [2] [nM]	fold weaker than with NL1(–A–B) (ECTO) [3] [fold]	Kd [4] [nM]	Kd [5] [nM]	stoichiometry N [6]
human β-neurexin-1 LNS6 domain lacking SS4 (β-NRX1_(LNS6)(–4); His85-Val265) (domain or fragment)	4.76	388	< 2	718	8500	
human β-neurexin-1 LNS6 domain with SS4 (β-NRX1_(LNS6)(+4)) (domain or fragment)			< 2			
human NL1 cholinesterase domain lacking splice inserts (hNL1(–A–B)_(ECTO); Gln46-Asp635), crystallisation sample (domain or fragment)						2
